For test [1], the target named is HA of A/Solomon Islands/03/2006 (H1N1) (influenza A virus (H1N1)).
Test [2] deals with HA of A/Texas/36/1991 (H1N1) (influenza A virus (H1N1)).
The target in test [3] is HA of A/Texas/50/2012 (H3N2) (influenza A virus (H3N2)).

B1: rFluA-20 heavy chain mutant Y34A (antibody, V domains shown)
VH: QVQLQESGPGLVKPSETLSLTCSVSGVSVTSDIAYWTWIRQPPGKGLEWIGYIFYNGDTNYNPSLKSRVTMSIDTSKNEFSLRLTSVTAADTAVYFCARGTEDLGYCSSGSCPNHWGQGTLVTVSS
VL: DIQMTQSPSSLSASIGDRVTITCRPSQNIRSFLNWFQHKPGKAPKLLIYAASNLQSGVPSRFSGSGSGTEFTLTIRSLQPEDFATYYCQQSYNTPPTFGQGTKVEIK
For the molecule B1, the EC50 in test [1] worked out at 0.04 µg/mL; in test [2], 0.05 µg/mL; in test [3], 0.16 µg/mL.

B2: rFluA-20 heavy chain mutant T96A (antibody, V domains shown)
VH: QVQLQESGPGLVKPSETLSLTCSVSGVSVTSDIYYWTWIRQPPGKGLEWIGYIFYNGDTNYNPSLKSRVTMSIDTSKNEFSLRLTSVTAADTAVYFCARGAEDLGYCSSGSCPNHWGQGTLVTVSS
VL: DIQMTQSPSSLSASIGDRVTITCRPSQNIRSFLNWFQHKPGKAPKLLIYAASNLQSGVPSRFSGSGSGTEFTLTIRSLQPEDFATYYCQQSYNTPPTFGQGTKVEIK
On to B2, for which the EC50 worked out at 0.03 µg/mL in test [1], 0.04 µg/mL in test [2] and 0.07 µg/mL in test [3].

B3: rFluA-20 heavy chain mutant E97A (antibody, V domains shown)
VH: QVQLQESGPGLVKPSETLSLTCSVSGVSVTSDIYYWTWIRQPPGKGLEWIGYIFYNGDTNYNPSLKSRVTMSIDTSKNEFSLRLTSVTAADTAVYFCARGTADLGYCSSGSCPNHWGQGTLVTVSS
VL: DIQMTQSPSSLSASIGDRVTITCRPSQNIRSFLNWFQHKPGKAPKLLIYAASNLQSGVPSRFSGSGSGTEFTLTIRSLQPEDFATYYCQQSYNTPPTFGQGTKVEIK
As for B3, the figures for the EC50 in test [1], in test [2] and in test [3] were 0.07 µg/mL, 0.05 µg/mL and 0.18 µg/mL, respectively.
